T1: His-tagged CD24 antigen (Homo sapiens (species assumed), UniProt P25063)
T1 chain: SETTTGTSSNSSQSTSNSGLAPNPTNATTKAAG

T2: CD24, membrane-associated, on human cells (Homo sapiens, UniProt P25063)
T2 chain: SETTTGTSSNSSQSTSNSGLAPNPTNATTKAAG


Assays:
His-tagged CD24 antigen = molecular target: T1, His-tagged CD24 antigen; experiment: ELISA
[1] = molecular target: T2, CD24, membrane-associated, on human …; experiment: flow cytometry on cells

Row | binding result (His-tagged CD24 antigen) | binding result [1] | Binder
1 | binds | binds | PPAB001, bispecific antibody fusion protein against CD47 and CD24 (bispecific antibody, V domains shown) VH: VKLVESGGGLVQPGGSLKLSCAASGDSVTSKSMSWVRQAPSGGLQWIGRTYPDNGDSSYTPSVRSRFIISRDNAKNTLYLQMRKVRSEDTGFYYCARQGDYWGQGTTLTVSS VL: DVVMTQTPLTLSLSPGQPASISCKSSQSGSIGRAKTYLNWYQQRPGQAPKLLIYDASKLDSGVPDRFTGSGSGTDFTLKISRVEAEDLGVYYCWQGTHFPYTFGGGTKLEIK
2 | – | binds | humanized anti-CD24 antibody with common light chain (antibody, V domains shown) VH: VKLVESGGGLVQPGGSLKLSCAASGDSVTSKSMSWVRQAPSGGLQWIGRTYPDNGDSSYTPSVRSRFIISRDNAKNTLYLQMRKVRSEDTGFYYCARQGDYWGQGTTLTVSS VL: DVVMTQTPLTLSLSPGQPASISCKSSQSGSIGRAKTYLNWYQQRPGQAPKLLIYDASKLDSGVPDRFTGSGSGTDFTLKISRVEAEDLGVYYCWQGTHFPYTFGGGTKLEIK
